± gives the uncertainty stated by the source.
B1: Tripartite motif-containing protein 44, residues 174 to 218; numbered along this chain, Q96DX7 (parent)
chain: VAKRKCPDHGLDLSTYCQEDRQLICVLCPVIGAHQGHQLSTLDEA

Variants of: B1
Experiment: abundance fitness (aPCA) (normalised: wild type 0, dead -1); higher = more abundant; growth selection in yeast, the domain comes from the species named
Details: Homo sapiens

| Variant | abundance fitness |
| --- | --- |
| K5D | -0.409 ± 0.04 |
| K5E | -0.173 ± 0.03 |
| K5F | -0.129 ± 0.052 |
| K5Q | -0.163 ± 0.032 |
| K5T | -0.115 ± 0.031 |
| K5V | -0.135 ± 0.028 |
| K5I | -0.198 ± 0.16 |
| K5A | -0.235 ± 0.027 |
| K5H | -0.24 ± 0.063 |
| L23T | -0.001 ± 0.032 |
| L23S | 0.014 ± 0.028 |
| L23D | 0.081 ± 0.039 |
| L23W | 0.001 ± 0.027 |
| L23V | -0.048 ± 0.027 |
| L23K | -0.041 ± 0.04 |
| L23F | -0.163 ± 0.049 |
| L23I | -0.161 ± 0.075 |
| L27N | 0.055 ± 0.038 |
| L27C | -0.283 ± 0.035 |
| L27Q | 0.127 ± 0.029 |
| L27R | 0.024 ± 0.026 |
| V1Q | -0.159 ± 0.16 |
| V1I | 0.036 ± 0.035 |
| V1K | -0.005 ± 0.041 |

| Variant | abundance fitness |
| --- | --- |
| V1C | -0.029 ± 0.06 |
| V1W | -0.231 ± 0.051 |
| V1E | -0.049 ± 0.038 |
| V1N | -0.097 ± 0.047 |
| V1H | -0.275 ± 0.085 |
| V1A | -0.13 ± 0.034 |
| R4G | -0.057 ± 0.025 |
| R4N | 0.071 ± 0.064 |
| R4M | 0.023 ± 0.033 |
| R4E | -0.046 ± 0.028 |
| R4V | -0.086 ± 0.029 |
| R4D | 0.016 ± 0.033 |
| R4C | -0.248 ± 0.056 |
| R4W | -0.162 ± 0.028 |
| R4K | 0.007 ± 0.034 |
| R4L | -0.061 ± 0.03 |
| K3F | -0.124 ± 0.054 |
| K3E | 0.02 ± 0.028 |
| K3D | 0.024 ± 0.032 |
| K3Q | -0.038 ± 0.033 |
| K3P | -0.093 ± 0.031 |
| A45L | -0.093 ± 0.045 |
| A45T | 0.021 ± 0.039 |
| A45K | -0.046 ± 0.14 |

| Variant | abundance fitness |
| --- | --- |
| A45Q | 0.044 ± 0.38 |
| A45R | -0.006 ± 0.033 |
| A45C | -0.058 ± 0.078 |
| A45W | -0.036 ± 0.05 |
| E44I | -0.132 ± 0.054 |
| E44R | -0.032 ± 0.027 |
| E44Q | -0.031 ± 0.038 |
| E44D | -0.053 ± 0.034 |
| E44Y | -0.232 ± 0.046 |
| E44S | -0.01 ± 0.031 |
| E44A | 0.009 ± 0.028 |
| E44L | -0.082 ± 0.031 |
| Q18P | -0.038 ± 0.04 |
| Q18M | -0.01 ± 0.041 |
| Q18F | -0.109 ± 0.048 |
| Q18K | 0.037 ± 0.043 |
| Q18S | -0.015 ± 0.031 |
| Q18D | 0.009 ± 0.039 |
| Q18I | -0.058 ± 0.1 |
| Q18L | -0.061 ± 0.029 |
| Q18V | -0.086 ± 0.028 |
| Q18Y | 0.08 ± 0.066 |
| T41W | -0.131 ± 0.029 |
| T41S | 0.032 ± 0.03 |

| Variant | abundance fitness |
| --- | --- |
| T41L | -0.087 ± 0.028 |
| T41N | 0.009 ± 0.042 |
| T41M | -0.065 ± 0.03 |
| T41I | -0.11 ± 0.04 |
| T41H | -0.102 ± 0.049 |
| T41G | 0.009 ± 0.025 |
| H37P | -0.588 ± 0.04 |
| H37M | -0.676 ± 0.038 |
| H37N | -0.584 ± 0.063 |
| H37F | -0.931 ± 0.085 |
| H37R | -0.677 ± 0.03 |
| L39V | -0.019 ± 0.027 |
| L39S | -0.021 ± 0.031 |
| L39W | -0.035 ± 0.028 |
| L39M | 0.028 ± 0.03 |
| L39D | -0.025 ± 0.035 |
| L39E | -0.021 ± 0.029 |
| L39R | -0.011 ± 0.027 |
| L39Y | -0.129 ± 0.05 |
| H34D | -0.575 ± 0.045 |
| H34E | -0.647 ± 0.075 |
| H34W | -0.895 ± 0.046 |
| H34T | -0.665 ± 0.042 |
| H34I | -0.717 ± 0.067 |

| Variant | abundance fitness |
| --- | --- |
| H34Q | -0.605 ± 0.043 |
| H34K | -0.634 ± 0.057 |
| H34A | -0.673 ± 0.035 |
| C17D | -0.631 ± 0.064 |
| C17R | -0.484 ± 0.029 |
| C17G | -0.557 ± 0.027 |
| C17A | -0.641 ± 0.031 |
| C17S | -0.562 ± 0.038 |
| C17I | -0.759 ± 0.091 |
| C17W | -0.931 ± 0.045 |
| C17N | -0.701 ± 0.15 |
| C17V | -0.753 ± 0.036 |
| R21A | 0 ± 0.027 |
| R21E | 0.043 ± 0.029 |
| R21M | -0.016 ± 0.034 |
| R21G | 0.025 ± 0.025 |
| R21K | 0.063 ± 0.037 |
| R21V | -0.205 ± 0.029 |
| R21Y | 0.001 ± 0.095 |
| S14I | 0.023 ± 0.058 |
| S14H | -0.014 ± 0.05 |
| S14W | -0.155 ± 0.03 |
| S14D | 0.006 ± 0.037 |
| S14L | -0.031 ± 0.028 |

| Variant | abundance fitness |
| --- | --- |
| S14F | -0.074 ± 0.044 |
| S14T | 0.01 ± 0.034 |
| S14P | -0.688 ± 0.063 |
| G10Y | -0.125 ± 0.082 |
| G10M | -0.078 ± 0.031 |
| G10Q | -0.027 ± 0.031 |
| G10L | -0.116 ± 0.029 |
| G10F | -0.206 ± 0.053 |
| G10C | -0.143 ± 0.039 |
| G36V | -0.519 ± 0.03 |
| G36E | -0.048 ± 0.029 |
| G36Y | -0.363 ± 0.067 |
| G36S | -0.117 ± 0.03 |
| G36R | -0.158 ± 0.026 |
| G36Q | -0.088 ± 0.032 |
| G36C | -0.172 ± 0.035 |
| G36W | -0.409 ± 0.03 |
| G36A | -0.131 ± 0.028 |
| Y16H | -0.053 ± 0.041 |
| Y16A | -0.266 ± 0.028 |
| Y16F | -0.069 ± 0.043 |
| Y16S | -0.16 ± 0.031 |
| Y16K | -0.059 ± 0.037 |
| Y16C | -0.132 ± 0.043 |

| Variant | abundance fitness |
| --- | --- |
| Y16N | -0.167 ± 0.049 |
| Y16I | 0.127 ± 0.1 |
| Y16M | -0.011 ± 0.031 |
| Y16R | -0.043 ± 0.028 |
| V30A | -0.011 ± 0.028 |
| V30P | -0.369 ± 0.032 |
| V30G | -0.144 ± 0.026 |
| V30D | 0.001 ± 0.047 |
| V30L | -0.076 ± 0.027 |
| V30C | -0.073 ± 0.039 |
| V26C | 0.002 ± 0.032 |
| V26P | 0.029 ± 0.031 |
| V26Y | -0.041 ± 0.038 |
| V26E | 0.066 ± 0.028 |
| V26L | -0.025 ± 0.027 |
| V26F | -0.052 ± 0.045 |
| Q35V | -0.035 ± 0.027 |
| Q35K | 0.002 ± 0.037 |
| Q35L | -0.105 ± 0.027 |
| Q35W | -0.186 ± 0.029 |
| Q35T | -0.037 ± 0.029 |
| Q35M | -0.031 ± 0.033 |
| Q35D | -0.143 ± 0.035 |
